Measured values taken from paper PMC5088048 (Structure (London, England : 1993), 2016).

B3: PCGF1 35–255 (RING finger and RAWUL domains) (domain or fragment, UniProt Q9BSM1 35-255, looked up)
chain: RVKIKDLNEHIVCCLCAGYFVDATTITECLHTFCKSCIVKYLQTSKYCPMCNIKIHETQPLLNLKLDRVMQDIVYKLVPGLQDSEEKRIREFYQSRGLDRVTQPTGEEPALSNLGLPFSSFDHSKAHYYRYDEQLNLCLERLSSGKDKNKSVLQNKYVRCSVRAEVRHLRRVLCHRLMLNPQHVQLLFDNEVLPDHMTMKQIWLSRWFGKPSPLLLQYSVK

Columns and labels:
RING1B, full-length = target: T1, RING1B, full-length (UniProt Q99496 1-336); experiment: AUC
T1 sequence (looked up): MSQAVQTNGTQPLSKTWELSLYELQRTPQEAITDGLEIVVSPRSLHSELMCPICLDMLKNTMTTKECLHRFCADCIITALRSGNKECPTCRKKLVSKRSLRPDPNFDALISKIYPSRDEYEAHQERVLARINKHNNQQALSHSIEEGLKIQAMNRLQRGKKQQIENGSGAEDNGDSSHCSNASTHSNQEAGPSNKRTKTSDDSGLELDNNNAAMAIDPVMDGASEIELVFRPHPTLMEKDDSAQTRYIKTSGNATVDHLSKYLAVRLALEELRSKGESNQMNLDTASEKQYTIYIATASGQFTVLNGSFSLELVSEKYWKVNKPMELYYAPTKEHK

[1] = target: B3; experiment: AUC
[2] = target: KDM2B 1059–1336/SKP1 heterodimer (UniProt Q8NHM5 1059-1336; P63208 2-163); experiment: ITC
KDM2B 1059–1336/SKP1 heterodimer, sequence (Q8NHM5 1059-1336, chain 1 of 2): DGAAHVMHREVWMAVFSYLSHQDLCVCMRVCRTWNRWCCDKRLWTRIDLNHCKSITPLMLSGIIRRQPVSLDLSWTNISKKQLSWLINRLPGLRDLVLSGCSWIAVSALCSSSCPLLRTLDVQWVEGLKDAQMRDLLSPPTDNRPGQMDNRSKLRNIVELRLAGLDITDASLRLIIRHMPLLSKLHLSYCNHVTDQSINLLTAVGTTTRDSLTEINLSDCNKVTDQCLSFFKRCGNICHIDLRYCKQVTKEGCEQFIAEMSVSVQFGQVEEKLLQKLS
KDM2B 1059–1336/SKP1 heterodimer, sequence (P63208 2-163, chain 2 of 2): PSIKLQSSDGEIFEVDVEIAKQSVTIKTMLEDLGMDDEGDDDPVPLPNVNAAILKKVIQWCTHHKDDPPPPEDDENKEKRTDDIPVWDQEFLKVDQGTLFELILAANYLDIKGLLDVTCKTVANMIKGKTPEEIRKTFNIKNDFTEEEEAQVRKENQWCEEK

B1: BCORL1 PUFD (1594–1711) (domain or fragment)
chain: METRDDFMFELSDKPLLPCYNLQVSVSRGPCNWFLFSDVLKRLKLSSRIFQARFPHFEITTMPKAEFYRQVASSQLLTPAERPGGLDDRSPPGSSETVELVRYEPDLLRLLGSEVEFQSCNS
- stoichiometry N (RING1B, full-length): 1
- stoichiometry N [1]: 1

B2: PCGF1 150–255/BCORL1 PUFD dimer (complex)
chain 1: LPFSSFDHSKAHYYRYDEQLNLCLERLSSGKDKNKSVLQNKYVRCSVRAEVRHLRRVLCHRLMLNPQHVQLLFDNEVLPDHMTMKQIWLSRWFGKPSPLLLQYSVK
chain 2: METRDDFMFELSDKPLLPCYNLQVSVSRGPCNWFLFSDVLKRLKLSSRIFQARFPHFEITTMPKAEFYRQVASSQLLTPAERPGGLDDRSPPGSSETVELVRYEPDLLRLLGSEVEFQSCNS
- Kd [2]: 2.8 µM

Binder: B3
- stoichiometry N (RING1B, full-length): 1
